From patent US20160039936A1, “FIBROBLAST GROWTH FACTOR RECEPTOR INHIBITION FOR THE TREATMENT OF DISEASE” (UNIVERSITY OF MIAMI, priority 2011, published 2016)

Legend:
[1] = tested on: isolated NRVM; assay: Quantitative PCR of ANP and BNP in NRVM; type: cell-based, rat; conditions: for expression of ANP and BNP: 48 h, FGF alone, qPCR
Procedure: Total RNA was purified from isolated NRVMs using Trizol (G Biosciences) according to the manufacturer's protocol, and reverse transcribed using Qscript (Quanta Biosciences). Gene expression was quantified by real-time PCR on a Biorad CFX 96 real-time Detection System using 200 ng of cDNA, PerfeCTA SYBR Green FastMix ROX (Quanta Biosciences). RNA from total mouse and rat hearts was extracted using the PureLink RNA Mini Kit (Ambion by Life Technologies) and Trizol (Life Technologies). 2 μg total RNA was reverse-transcribed using First Stand cDNA Synthesis Kit for RT-PCR (AMV) (Roche Diagnostics). Quantitative PCR reactions were carried out in the StepOne plus Real-Time PCR System (Applied Biosystems) using FAST SYBR Green Master Mix (Applied Biosystems). Raw data were quantified via StepOne™ software v2.3 from life Technologies. Relative gene expression was normalized to expression levels of 18S rRNA (for NRVM), and GAPDH or beta actin (mouse and rat tissue), and evaluated using the 2^−ΔΔCt method.

[2] = tested on: isolated NRVM; assay: Signaling immunoblots in NRVM (p-ERK, Egr-1, p-NFAT, p-Akt); type: cell-based, rat; conditions: for Egr-1 levels / phosphorylated ERK: 30 and 60 minutes
Procedure: NRVM were scraped from a 6 cm-plate using 400 μl CHAPS extraction buffer [(20 mM Tris-HCl pH7.5, 500 mM NaCl, 0.5% CHAPS, protease inhibitor cocktail (Roche), protein phosphatase inhibitors (Sigma-Aldrich)] and incubated on ice for 15 minutes. The cell lysate was centrifuged at 14,000 rpm and 4° C. for 15 minutes and the supernatant boiled in sample buffer and analyzed by SDS-PAGE and immunoblotting as described before (Faul et al., Cell Biol., 169(3):415-424, 2005; Faul et al., Mol. Cell Biol., 27(23):8215-8227, 2007). For protein extraction from mouse hearts, tissue was isolated, minced and homogenized in CHAPS extraction buffer at 1:10 (w:v) and protein lysates were prepared as described above. Antibodies to sarcomeric α-actinin (EA-53; Sigma-Aldrich; 1:1000), total (Cell Signaling; 1:1000) and phospho-ERK (Cell Signaling; 1:1000), total and phospho-NFAT-c1 (Santa Cruz Biotechnology; 1:200), total and phospho-Akt (Cell Signaling; 1:1000 and 1:2000), and GAPDH (Abcam; 1:10,000) were used as primary antibodies and horseradish peroxidase conjugated goat-anti-mouse and goat-anti-rabbit (Promega; 1:20,000) were secondary antibodies.

[3] = tested on: neonatal mouse ventricular myocytes (NMVM); assay: Hypertrophic growth and β-MHC of isolated NMVM (wild-type or FGFR4−/−); type: cell-based; conditions: 48 h
Procedure: NMVM were isolated enzymatically (Kreusser et al., 2014). Briefly, hearts from 1-3 day-old mice were harvested, minced in PBS/glucose and further digested with collagenase type 2 (0.2% w/v) and DNase (0.05% w/v) on a rotary shaker at 37° C. for 11 minutes. Cells were then released from the tissue by triturating the suspension twice with a standard 10 ml plastic serological pipette, transferred to DF10 medium (Dulbecco's Modified Eagle Medium/Ham's Nutrient Mixture F12 adjusted to 17 mM NaHCO2 containing 2 mM L-glutamine, 1% P/S and 10% FBS), and stored on ice. The remaining tissue was further incubated in PBS/glucose/collagenase/DNase solution on a rotary shaker at 37° C. for 11 minutes. The trituration and incubation steps were repeated 5-7 times until the tissue was completely dissolved. Cells were pelleted at 300 g for 5 minutes, resuspended in DF20 media (Dulbecco's Modified Eagle Medium/Ham's Nutrient Mixture F12 adjusted to 17 mM NaHCO2 containing 2 mM L-glutamine, 1% P/S and 20% FBS), and preplated for 1 hour to eliminate fibroblasts. Remaining cells were counted using a hemocytometer and plated on glass and plastic surfaces, which were coated with laminin (Sigma-Aldrich; 10 μg/ml in PBS) at room temperature for 1 hour prior to plating. For immunofluorescence analysis, 3×10^5 cells were seeded per well on glass coverslips in 24-well plates. For Western blot analyses of total protein extracts, 5×10^6 cells were seeded in 10 cm-culture dishes. Cells were left undisturbed in DF20 medium at 37° C. for 72 hours, starved overnight with DF medium (Dulbecco's Modified Eagle Medium/Ham's Nutrient Mixture F12 adjusted to 17 mM NaHCO2 containing 2 mM L-glutamine, 1% P/S), and treated in DF medium with recombinant FGF23, FGF2 (both at 100 ng/ml) or AngII (1 μM, Sigma-Aldrich) for 48 hours.
HEK293 cells, NRVM or NMVM were treated with growth factors for 30 minutes to analyze activation of signal transduction mediators, or for 48 hours to analyze expression levels of hypertrophic marker proteins. Cells were scraped from 6-well plates using 500 μl CHAPS extraction buffer (20 mM Tris-HCl pH7.5, 500 mM NaCl, 0.5% CHAPS, protease inhibitor cocktail (Roche), protein phosphatase inhibitors [Sigma-Aldrich]) and incubated on ice for 30 minutes. The cell lysate was centrifuged at 14,000 rpm and 4° C. for 30 minutes, and the supernatant boiled in sample buffer and analyzed by SDS-PAGE and immunoblotting. For protein extraction from mouse hearts, tissue was isolated, minced and homogenized in RIPA extraction buffer (50 mM Tris-HCl pH 7.5, 200 mM NaCl, 1% Triton X-100, 0.25% DOC, 1 mM EDTA, 1 mM EGTA, protease and phosphatase inhibitors) at 1:10 (w:v), and protein lysates were prepared as described above.
Cultured cells were fixed in 2% PFA (in 5 mg/ml sucrose) for 5 minutes and permeabilized in 1% Triton X-100 (in PBS) for 10 minutes. We analyzed hypertrophic growth of isolated NRVM and NMVM on laminin-coated glass coverslips after 48 hours of treatment with growth factors. For FGFR4 expression and localization analyses, untreated NMVM from wild-type and FGFR4^−/− mice were immunolabeled. The mouse monoclonal antibody against sarcomeric α-actinin (EA-53; Sigma-Aldrich) was used at 1:1,000, and rabbit polyclonal anti-FGFR4 (C-16; Santa Cruz) at 1:50. Cy3-conjugated goat-anti mouse and Alexa488-conjugated goat-anti rabbit (Jackson Immuno Research) were used as secondary antibodies at 1:300. To visualize nuclei, fixed cells were incubated with 4′,6-diamidino-2-phenylindole (DAPI; 400 ng/ml in PBS) for 10 minutes. Immunofluorescence images were taken on a Leica TCS-SP5 confocal microscope with a 63× oil objective.
Myocyte cross-sectional area was measured based on α-actinin-positive staining using Leica AF6000 fluorescence software. […]

**Q.** Which results are given for `CCN(CC)CCCCNc1ncc2cc(-c3cc(OC)cc(OC)c3)c(NC(=O)NC(C)(C)C)nc2n1` [PD173074]?
**A.** FGF2-mediated increases in ANP and BNP expression with inhibitor ([1]; 48 h co-treatment): blocks; FGF23-mediated increases in ANP and BNP expression with inhibitor ([1]; 48 h co-treatment): blocks

B1: FGF23: recombinant mouse FGF23, 6His-tagged Tyr25-Val251 (Arg179Gln) (R&D Systems) (protein)
chain: YPDTSPLLGSNWGSLTHLYTATARTSYHLQIHRDGHVDGTPHQTIYSALMITSEDAGSVVITGAMTRRFLCMDLHGNIFGSLHFSPENCKFRQWTLENGYDVYLSQKHHYLVSLGRAKRIFQPGTNPPPFSQFLARRNEVPLLHFYTVRPRRHTQSAEDPPERDPLNVLKPRPRATPVPVSCSRELPSAEEGGPAASDPLGVLRRGRGDARGGAGGADRCRPFPRFV
modifications: left off: small tags and cut ends
**Q.** For B1, which Egr-1 levels [2] is on record?
**A.** only a modest increase

**Q.** What about the “phosphorylated ERK” value [2] of the same molecule?
**A.** only a modest increase

**Q.** And the “phosphorylated NFAT” value ([2]; after 60 minutes)?
**A.** modest decrease

**Q.** And the “expression of ANP and BNP” value [1]?
**A.** significantly increased

**Q.** What about the “expression of β-MHC protein in wild-type NMVM” value ([3]; immunoblot) of the same molecule?
**A.** increased expression

**Q.** And the “cross-sectional area of wild-type NMVM” value ([3]; FGF 100 ng/ml, AngII 1 μM)?
**A.** significant increases

B2: FGF2: recombinant mouse FGF2 (Ala11-Ser154) (R&D Systems) (protein)
chain: ALPEDGGAAFPPGHFKDPKRLYCKNGGFFLRIHPDGRVDGVREKSDPHVKLQLQAEERGVVSIKGVCANRYLAMKEDGRLLASKCVTEECFFFERLESNNYNTYRSRKYSSWYVALKRTGQYKLGSKTGPGQKAILFLPMSAKS
**Q.** How did the Egr-1 levels [2] turn out when B2 was run?
**A.** increase

**Q.** And the “phosphorylated ERK” value [2]?
**A.** robust increase

**Q.** And the “phosphorylated Akt” value ([2]; after 60 minutes)?
**A.** modest increase

**Q.** And the “phosphorylated NFAT” value ([2]; after 60 minutes)?
**A.** had no effect

**Q.** What about the “expression of ANP and BNP” value [1] of the same molecule?
**A.** significantly increased

**Q.** What about the “expression of β-MHC protein in FGFR4−/− NMVM” value ([3]; immunoblot) of the same molecule?
**A.** induced this effect

**Q.** What about the “expression of β-MHC protein in wild-type NMVM” value ([3]; immunoblot) of the same molecule?
**A.** increased expression

**Q.** And the “cross-sectional area (size) of NMVM from FGFR4−/− mice” value ([3]; FGF 100 ng/ml, AngII 1 μM)?
**A.** increase the size

**Q.** What about the “cross-sectional area of wild-type NMVM” value ([3]; FGF 100 ng/ml, AngII 1 μM) of the same molecule?
**A.** significant increases
